This passage reports Kd and EC50 results from patent publication US20250011430A1.

Numbering of substitutions follows the chain as printed.

B1: humanized 26B6 (antibody, V domains shown)
VH: EVQLVQSGAEVKKPGASVKVSCKASGYTFTEYTMHWVRQAPGQGLEWIGGINPNTGGTTYNQKFNGRVTMTRDTSISTAYMELSSLRSEDTAVYYCTRPYRDDGGFHWYFDVWGQGTLVTVSS
VL: EIVLTQSPATLSLSPGERATLSCSASSSVSYMQWYQQKPGLAPRLLIYDTSKLTSGIPDRFSGSGSGTDFTLTISRLEPEDFAVYYCQQWSSNPLTFGGGTKVEIKR
B2: huM30 (antibody, from another filing, V domains shown)
VH: QVQLVQSGAEVKKPGSSVKVSCKASGYTFTNYVMHWVRQAPGQGLEWMGYINPYNDDVKYNEKFKGRVTITADESTSTAYMELSSLRSEDTAVYYCARWGYYGSPLYYFDYWGQGTLVTVSS
VL: EIVLTQSPATLSLSPGERATLSCRASSRLIYMHWYQQKPGQAPRPLIYATSNLASGIPARFSGSGSGTDFTLTISSLEPEDFAVYYCQQWNSNPPTFGQGTKVEIK
B3: humanized 6F7 with light chain variable region LV1 (antibody, V domains shown)
VH: EVQLVESGGGLVQPGGSLRLSCAASGFTFTDYYMSWVRQAPGKGLEWVAFIRNKANGYTTEYSASVKGRFTISRDDSKNSLYLQMNSLRAEDTAVYYCARDSHYRPFAYWGQGTLVTVSS
VL: DIVMTQSPLSLPVTPGEPASISCKSSQSLLNSGNQNNYLTWYLQKPGQSPQLLIYLASTRDSGVPDRFSGSGSGTDFTLKISRVEAEDVGVYYCQNDYTYPLTFGGGTKVEIKR
B4: humanized 6F7 with light chain variable region LV2 (antibody, V domains shown)
VH: B3 VH
VL: DIVMTQSPDSLAVSLGERATINCKSSQSLLNSGNQNNYLTWYQQKPGQPPKLLIYLASTRDSGVPDRFSGSGSGTDFTLTISSLQAEDVAVYYCQNDYTYPLTFGGGTKVEIKR
B5: anti-B7H3 antibody 26B6 (antibody, V domains shown)
VH: EVQLQQSGPELVKPGASVKISCKTSGYAFTEYTMHWVKQSQGKSLEWIGGINPNTGGTTYNQKFNGKATLTVDRSSSTAYMELRSLTSEDSAVYYCTRPYRDDGGFHWYFDVWGAGTAVTVSS
VL: QIVLTQSPAVMSTSPGEKVTMTCSASSSVSYMQWYQQKSGTSPKRWIYDTSKLTSGVPARFSGSGSGTSYSLTISSMEAEDAATYYCQQWSSNPLTFGAGTKLELKR
B6: anti-B7H3 antibody 23H1 (antibody, V domains shown)
VH: EVKLVESGGGLVQPGGSLRLSCATSGFTFTDYYMSWVRQPPGKALEWLGFIRNKVNDYTTEYSVSVKGRFTISRDNSQTILYLQMNTLRAEDSATYYCARDSPYRPFAYWGQGTLVTVSA
VL: DIVMTQSPSSLTVTAGENVTMSCKSSQTLLNNGNQKNFLTWYQQKPGQPPKLLIYLASTRESGVPDRFTGSGSGTDFTLTISSVQAEDLAVYYCQNDYTYPLTFGAGTKLELKR
B7: anti-B7H3 antibody 6F7 (antibody, V domains shown)
VH: B6 VH with V55A, D57G, V64A, R74S, N76D, T79S, P103H
VL: B6 VL with V3Q, N18K, T28S, N32S, K36N, F38Y, E61D
B8: anti-B7H3 antibody 2B8 (antibody, V domains shown)
VH: QVQLQQSGPELVRPGVSVKISCKVSGYTFTDGAMHWVKRSHAKSLEWIGIINTNSGNTNYNQKFQGKATMTVDKSSSTAYMELARLTSEDSAIYYCARGVFYYGYGAWFAYWGQGTLVTVSA
VL: DVQITQSPSYLTASPGETIIINCRASKTISNYLAWYQEKPGKTNKLLIYSGSTLQSGIPSRFSGSGSDTDFTLTISSLEPEDFAMYYCQQHHEYPLTFGAGTKLELKR

The target of the first assay is human B7H3 ECD-His (human) (UniProt Q5ZPR3). Kind of assay: ForteBio BLI. (Biolayer interferometry detects binding as a change in optical thickness at a sensor tip.)
What is called Kd is the constant that tells how readily two partners part at equilibrium. Low values mean a tighter complex, high ones a looser complex. As to B1, the Kd amounted to 0.753 nM.

As for B2, the Kd came out at 0.277 nM.

Consider B3, for which the Kd is 37 nM.

Turning to B4, the Kd was 14.2 nM.

The target of another assay is T1, B7H3 on cells (B7H3 on HEK293 cells; B7H3 expressed from plasmid on HEK-293T and QT6 cells) (human) (UniProt Q5ZPR3).
T1 sequence (looked up): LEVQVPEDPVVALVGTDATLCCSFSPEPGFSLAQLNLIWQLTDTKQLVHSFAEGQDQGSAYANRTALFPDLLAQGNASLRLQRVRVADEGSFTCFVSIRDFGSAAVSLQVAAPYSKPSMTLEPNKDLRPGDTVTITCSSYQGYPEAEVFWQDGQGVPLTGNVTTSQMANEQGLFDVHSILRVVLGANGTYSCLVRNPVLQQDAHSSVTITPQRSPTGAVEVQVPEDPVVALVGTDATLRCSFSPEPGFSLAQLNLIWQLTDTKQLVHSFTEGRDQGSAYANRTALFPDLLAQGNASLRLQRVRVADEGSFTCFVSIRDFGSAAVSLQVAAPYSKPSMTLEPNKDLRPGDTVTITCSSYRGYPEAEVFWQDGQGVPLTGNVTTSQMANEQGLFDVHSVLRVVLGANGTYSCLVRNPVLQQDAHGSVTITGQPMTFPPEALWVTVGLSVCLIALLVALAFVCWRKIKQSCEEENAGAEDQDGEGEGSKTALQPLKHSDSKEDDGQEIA
The assay can be described thus: flow cytometry on HEK293 cells. A general note: In flow cytometry, cells or beads pass a laser one at a time.
For orientation: EC50 means the concentration needed to bring the measured effect to its halfway point. High values mean lower potency in that assay, low ones higher potency in that assay. Turning to B2, the EC50 was found to be 0.0974 mg/L.

The target of the next assay is human B7H3 ECD-His (human) (UniProt Q5ZPR3). Kind of assay: ForteBio BLI, antibody on AHQ sensor, 60 nM antigen, 1:1 model.
B5 had a Kd of 0.435 nM.

B2 displayed a Kd of 0.346 nM.

Consider B6, for which the Kd came to 0.685 nM.

B7: the dissociation constant (Kd) worked out at 0.537 nM.

In turn, B8 showed a Kd of 0.323 nM.
